Measured values taken from US20190016815A1 (TRACON PHARMACEUTICALS, published 2019).
Positions count from the first letter of the chain named.

T1: human CD105 (R&D Systems Cat. No. 1097-EN) (human, UniProt P17813 26-586)
T1 construct: Bought protein, captured on the plate by mouse anti-human CD105 (Southern Biotechnologies 9811-01); also called human endoglin
T1 sequence (looked up): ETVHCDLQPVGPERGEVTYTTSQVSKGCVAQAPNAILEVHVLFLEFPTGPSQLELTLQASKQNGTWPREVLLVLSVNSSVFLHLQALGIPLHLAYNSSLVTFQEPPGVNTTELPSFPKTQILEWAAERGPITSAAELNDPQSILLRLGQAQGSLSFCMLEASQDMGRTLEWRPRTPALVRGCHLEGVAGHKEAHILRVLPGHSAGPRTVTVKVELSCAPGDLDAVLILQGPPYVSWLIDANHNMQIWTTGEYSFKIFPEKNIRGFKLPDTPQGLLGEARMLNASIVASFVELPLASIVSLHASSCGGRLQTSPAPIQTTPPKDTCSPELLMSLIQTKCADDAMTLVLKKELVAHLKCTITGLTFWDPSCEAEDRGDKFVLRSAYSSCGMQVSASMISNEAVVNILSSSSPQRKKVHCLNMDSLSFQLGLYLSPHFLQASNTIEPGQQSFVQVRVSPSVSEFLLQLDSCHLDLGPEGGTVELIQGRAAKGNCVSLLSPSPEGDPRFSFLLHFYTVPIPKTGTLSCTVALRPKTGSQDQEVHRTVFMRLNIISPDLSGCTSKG

B1: TRC205 antibody (antibody, IgG4, V domains shown)
VH: EVQLVESGGGLVKPGGSLRLSCAASGFTFSDAWMDWVRQAPGKGLEWVGEARSKASNHATYYAESVKGRFTISRDDSKNTLYLQMNSLKTEDTAVYYCTRWRRFFDSWGQGTLVTVSS
VL: DIQMTQSPSSLSASVGDRATITCRASSSVSYMHWYQQKPGKAPKPWAYATSNLASGVPSRFSGSGSGTDYTLTISSLQPEDFATYYCQQWSSNPLTFGGGTKVEIK
notes: IgG4); Biotinylated with a Lightning-Link kit for the direct ELISA and as the labelled tracer; also called biotinylated TRC205; unlabelled TRC205
B2: VK2ASVH1A (antibody, V domains shown)
VH: B1 VH with G49A, A51I
VL: B1 VL with M4L, A47I, T50S
B3: VK2ASVH1R (antibody, V domains shown)
VH: B1 VH with A51I, K54R
VL: B1 VL with M4L, A47I, T50S
B4: VK2SSVH1R (antibody, V domains shown)
VH: B1 VH with A51I, K54R
VL: B1 VL with M4L, A19V, T22S, A47I, T50S
B5: human BMP9 (R&D Systems Cat. No. 3209-BP-010) (ligand, UniProt Q9UK05 320-429, looked up)
chain: SAGAGSHCQKTSLRVNFEDIGWDSWIIAPKEYEAYECKGGCFFPLADDVTPTKHAIVQTLVHLKFPTKVGKACCVPTKLSPISVLYKDDMGVPTLKYHYEGMSVAECGCR
notes: Bought protein

Key:
[1] = target: T1, human CD105 (R&D Systems Cat. No. …); assay: competition ELISA on captured human CD105; unlabelled TRC205 against biotinylated TRC205 (55 ng/ml)
Method: (§1) After washing three times with PBST, a three-fold dilution series of either human BMP9 (R&D Systems Cat. No. 3209-BP-010) (413 nM to 0.56 nM), or unlabelled TRC205 antibody (40 nM to 0.05 nM) or a single concentration of an irrelevant antibody (66 nM) was mixed with a fixed concentration of biotinylated TRC205 antibody (55 ng/ml) and added to the plate. Following incubation for 1 hour at room temperature, the plate was washed three times with PBST and binding of the biotinylated TRC205 antibody was detected using streptavidin-HRP (Sigma Cat. No. 55512) and TMB substrate (Sigma Cat. No. T0440). OD450 nm values were measured on a Dynex MRX TCII plate reader.

[2] = target: T1, human CD105 (R&D Systems Cat. No. …); assay: competition ELISA on human CD105 captured on the plate (100 ng/ml); competitor: biotinylated chimeric anti-CD105 at 6.25 ng/ml; streptavidin-HRP, TMB, OD450
Method: FIGS. 6A-6F. Anti-CD105 competition ELISA with humanized and humanized/deimmunized antibodies. […] Binding was detected via streptavidin-HRP and TMB substrate. Absorbance (OD) at 450 nm was measured on a plate reader and this was plotted against the test antibody concentration. FIG. 6A provides the results from the chimeric control compared to VK1VH1, VK1VH2, VK2VH1 and VK2VH2. FIG. 6B provides the results from the chimeric control compared to VK1VH1, VK2AVH1A, VK2SAVH1Q, VK2SAVH1R and VK2SAVH1S. FIG. 6C provides the results from the chimeric control compared to VK2AAVH1A2, VK2ASVH1A2, VK2ASVH1Q, VK2SSVH1A and VK2SSVH1Q. FIG. 6D provides the results from the chimeric control compared to VK2VH1, VK2AAVH1A, VK2AAVH1Q, VK2AAVH1R and VK2AAVH1S. FIG. 6E provides the results from the chimeric control compared to VK2VH1, VK2ASVH1A, VK2ASVH1R, VK2ASVH1S, and VK2SAVH1A2. FIG. 6F provides the results from the chimeric control compared to VK2VH1, VK2SSVH1Q, VK2SSVH1A2, VK2SSVH1R and VK2SSVH1S.
Antibodies were tested in a competition ELISA for binding to CD105 against biotinylated chimeric anti-CD105. Briefly, chimeric anti-CD105 was biotinylated using a micro-biotinylation kit (Sigma, Catalog No. BTAG-1KT) following the manufacturer's instructions. […] Binding of the biotinylated chimeric antibody was detected via streptavidin-HRP (Sigma, Catalog No. 55512) and TMB substrate (Sigma, Catalog No. T0440). OD450 nm values were measured on a Dynex MRX TCII plate reader. The results of the competition analysis are illustrated in FIG. 6.

[3] = target: T1, human CD105 (R&D Systems Cat. No. …); assay: competition ELISA on captured human CD105; human BMP9 against biotinylated TRC205 (55 ng/ml)
Method: as §1

| Binder | binding result [2] | further results |
| --- | --- | --- |
| B1 |  | IC50 [1]: 0.26 µg/mL |
| B2 | binds |  |
| B3 | binds |  |
| B4 | binds |  |
| B5 |  | IC50 [3]: 0.35 µg/mL |
